The values below come from patent US20240383964A1, “De Novo Designed alpha(5) beta(1) Integrin selective minibinders” (UNIVERSITY OF WASHINGTON, priority 2023, published 2024).

For orientation: EC50 (read off the curve) means the concentration needed to bring the measured effect to its halfway point. Lower therefore signals a more potent agent. The Kd is the free concentration of one partner at which half of the binding sites on the other are occupied at equilibrium, for simple one-to-one binding.

The star is where a group is joined. Biotin = O=C1N[C@H]2[C@H](CS[C@H]2CCCCC(=O)*)N1

For one experiment, the target named is T1, integrin α8β1 (UniProt P53708 39-1012; P05556 21-728).
T1 construct: also called a8b1
In words: BLI (Octet), minibinder on the sensor, integrin α8β1 in solution [panel α8β1]. The method, then: (§1) Because of the large size of integrin and the distribution of integrin α5β1 on the cell surface, it was of interest to measure the affinity of the binders on the cell surface. Using wild type A562, the binding affinity of binders to α5β1 was measured, which is the only RGD binding integrin expressed in WT A562.
(§2) Prior to measurements, streptavidin-coated biosensors were first equilibrated for at least 10 min in assay buffer. Protein binders with an N-terminal biotin were immobilized onto the biosensors by dipping them into a solution with 100 nM protein until the response reached between 10% and 50% of the maximum value followed by dipping sensors into fresh buffer to establish a baseline for 120 s. Titration experiments were performed at 25 degrees Celsius while rotating at 1000 rpm. Association of integrins was allowed by dipping biosensors in solutions containing designed protein diluted in buffer until equilibrium was approached followed by dissociation by dipping the biosensors into fresh buffer solution to monitor the dissociation kinetics. In the minibinder binding cross specificity assays each biotinylated minibinder was loaded onto streptavidin biosensors in equal amounts followed by 2 min of baseline equilibration. The association and dissociation with all the different binders were allowed for 900-1500 s for each step. […]
In general terms: In BLI a coated tip is dipped into the sample, and binding shifts an interference pattern.

In another experiment the target is T2, integrin αvβ1 (UniProt P06756 31-992; P05556 21-728).
T2 construct: also called avb1
In words: BLI (Octet), minibinder on the sensor, integrin αvβ1 in solution [panel αvβ1]. The method, then: as §1, §2

The target of the next experiment is T3, integrin αvβ3 (UniProt P06756 31-992; P05106 27-718).
T3 construct: also called avb3
In words: BLI (Octet), minibinder on the sensor, integrin αvβ3 in solution [panel αvβ3]. The method, then:
as §1, §2

A further experiment deals with T4, integrin αvβ8 (UniProt P06756 31-992; P26012 43-684).
T4 construct: also called avb8
Nature of the experiment: BLI (Octet), minibinder on the sensor, integrin αvβ8 in solution [panel αvβ8]. The method, then:
as §1, §2

In experiment [1] the target is T5, integrin α5β1 on the cell surface (UniProt P08648 42-1049; P05556 21-798).
T5 construct: whole, on cells; HUVECs in the functional assays; also called α5β1 on wild type K562 (printed also A562) cells; α5β1 on HUVECs
In words: cell surface titration on wild type K562 cells, readout Binder Bound Cells (%).

The target in experiment [2] is T6, integrin α5β1 (UniProt P08648 42-995; P05556 21-728).
T6 construct: also called alpha(5) beta(1) integrin; a5b1
In words: BLI, integrin resting buffer (1 mM MgCl2, 1 mM CaCl2, pH 7.4), binder immobilised; BLI, integrin resting buffer pH 7.4 with 1 mM MgCl2, 1 mM CaCl2. The method, then:
(§3) The binding affinity of each variant was calculated as described in Cao et al, 2022. By combining the beneficial mutations, combination libraries were constructed and screened for binding to α5β1 at an affinity as low as 200 pico-molar (FIG. 4). […] Because RGD binding depends on metal ions, the binders were tested for binding to integrin without metal ions. […] Similarly, mutating the RGD motif to GGG also abolished the binding ability. […] This is surprising, and provides a tool to track integrin α5β1 in endosome and lysosome.
(§4) Prior to measurements, streptavidin-coated biosensors were first equilibrated for at least 10 min in assay buffer. Protein binders with an N-terminal biotin were immobilized onto the biosensors by dipping them into a solution with 100 nM protein until the response reached between 10% and 50% of the maximum value followed by dipping sensors into fresh buffer to establish a baseline for 120 s. Titration experiments were performed at 25 degrees Celsius while rotating at 1000 rpm. Association of integrins was allowed by dipping biosensors in solutions containing designed protein diluted in buffer until equilibrium was approached followed by dissociation by dipping the biosensors into fresh buffer solution to monitor the dissociation kinetics.

The target of experiment [3] is T6, integrin α5β1. In words: BLI (Octet), minibinder on the sensor, integrin α5β1 in solution at labelled concentrations up to 200 nM; buffer 1 mM Ca2+, 1 mM Mg2+, pH 5 [lower left panel]. The method, then:
as §3, §4

For experiment [4], the target named is T6, integrin α5β1. Nature of the experiment: BLI (Octet), 00179_v4.1 RGD→GGG on the sensor, integrin α5β1 in solution; 1 mM Ca2+, 1 mM Mg2+, pH 7.4 [lower right panel]. The method, then: as §3, §4
In a further experiment the test system is HUVECs. In words: Scratch-wound cell migration assay. It is filed as cell-based, human. Particulars: 20 nM, 12 hours, compared to PBS control. The method, then:
FIG. 2. (A) BLI binding affinity traces for minibinder or ^8RGD^10/GGG mutant against α5β1 in indicated buffers. Minibinder affinity to integrin α5β1 is dependent on metal ion presence and RGD motif. All affinity data was collected by Octet™ R8 and binding affinity was estimated by the Octet™ ForteBio software package. (B) Minibinder has no detectable affinity in presence of 500 nM or 1000 nM integrin αvβ1, αvβ3, αvβ6, αvβ8 and α8β1. (C) Cell surface titration of minibinder 4584_V5.3 and 00179_v4.1 against K562 cells wild type. […] Integrin α5 subunit and β1 subunit were stained with integrin α5 and active integrin β1 subunit specific antibody, respectively. (E) Quantification of (D). Quantification was counted as a percentage of mb-sheets that colocalized with staining of a5 and b1, a5 only, b1 only, or none; 30-35 sheets were counted in each biological repeat. […] Minibinders were added to HUVEC cells at 0, 0.1, 1, 10, and 100 nM. Vascular stability was analyzed at 12-h timepoints. 20 images were taken in each well at random locations. The scale bar is 100 μm. (G) Quantification of (F). The number of nodes, meshes, and tubes from images in (F) were quantified using an angiogenesis analyzer plug-in in ImageJ. Statistical significance of each were analyzed using One-way Anova Bonferroni's multiple comparison test. […] The wound area of T0 and T12 time points were quantified using imageJ and level of cell migration were calculated using this equation (AreaT0-T12)/AreaT0, all samples were normalized to PBS as fold change.
The inhibitory effect of 20 nM soluble 00179_v4.1 on cell migration was assessed using the scratch-wound assay. HUVECs were seeded with either 00179_v4.1 or PBS (used as a […] control) for 12 hours before capturing images for analysis.

T6 sequence (P08648 42-995, chain 1 of 2): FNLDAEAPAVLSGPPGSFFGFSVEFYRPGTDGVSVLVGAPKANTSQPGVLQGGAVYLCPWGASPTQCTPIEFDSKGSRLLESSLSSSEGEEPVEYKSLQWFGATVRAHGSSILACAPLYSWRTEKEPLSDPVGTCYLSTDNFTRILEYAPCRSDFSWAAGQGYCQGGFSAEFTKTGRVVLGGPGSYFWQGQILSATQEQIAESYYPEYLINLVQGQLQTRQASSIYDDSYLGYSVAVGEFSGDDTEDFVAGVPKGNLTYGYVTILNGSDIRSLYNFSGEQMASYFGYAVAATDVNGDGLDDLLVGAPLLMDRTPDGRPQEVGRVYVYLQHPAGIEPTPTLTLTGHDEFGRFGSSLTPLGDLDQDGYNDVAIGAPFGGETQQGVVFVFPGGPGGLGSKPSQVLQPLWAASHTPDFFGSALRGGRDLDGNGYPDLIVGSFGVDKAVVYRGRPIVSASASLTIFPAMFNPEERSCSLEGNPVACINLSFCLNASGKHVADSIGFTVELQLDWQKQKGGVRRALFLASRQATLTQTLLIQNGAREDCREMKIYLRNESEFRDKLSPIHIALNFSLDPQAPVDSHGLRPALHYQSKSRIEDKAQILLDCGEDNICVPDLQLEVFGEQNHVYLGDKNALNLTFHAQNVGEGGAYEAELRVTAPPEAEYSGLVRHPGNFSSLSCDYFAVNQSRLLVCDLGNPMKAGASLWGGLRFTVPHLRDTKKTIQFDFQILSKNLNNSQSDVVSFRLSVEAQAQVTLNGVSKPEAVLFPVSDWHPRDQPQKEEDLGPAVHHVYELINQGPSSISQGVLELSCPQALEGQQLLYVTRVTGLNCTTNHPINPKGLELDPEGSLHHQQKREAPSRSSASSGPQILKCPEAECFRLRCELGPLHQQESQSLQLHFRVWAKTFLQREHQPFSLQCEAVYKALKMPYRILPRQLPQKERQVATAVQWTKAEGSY
T6 sequence (P05556 21-728, chain 2 of 2): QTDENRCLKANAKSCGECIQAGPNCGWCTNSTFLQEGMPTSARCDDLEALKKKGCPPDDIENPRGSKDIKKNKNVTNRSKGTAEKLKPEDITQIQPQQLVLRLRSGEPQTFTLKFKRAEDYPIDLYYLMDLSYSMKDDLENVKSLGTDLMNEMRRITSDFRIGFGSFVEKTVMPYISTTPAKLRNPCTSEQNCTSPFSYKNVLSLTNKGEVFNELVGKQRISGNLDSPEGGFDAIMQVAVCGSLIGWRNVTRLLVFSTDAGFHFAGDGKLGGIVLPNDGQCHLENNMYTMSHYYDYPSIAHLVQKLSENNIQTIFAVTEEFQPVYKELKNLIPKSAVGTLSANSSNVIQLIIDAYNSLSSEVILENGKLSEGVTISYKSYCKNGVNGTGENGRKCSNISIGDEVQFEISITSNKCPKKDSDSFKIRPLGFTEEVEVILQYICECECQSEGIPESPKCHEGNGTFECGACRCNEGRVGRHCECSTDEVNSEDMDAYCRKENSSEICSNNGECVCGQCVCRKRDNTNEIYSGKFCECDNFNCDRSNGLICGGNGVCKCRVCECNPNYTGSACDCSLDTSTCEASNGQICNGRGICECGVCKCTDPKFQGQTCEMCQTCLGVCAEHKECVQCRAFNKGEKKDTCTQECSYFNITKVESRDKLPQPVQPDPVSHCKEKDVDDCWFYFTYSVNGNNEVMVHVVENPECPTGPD
T5 sequence (P08648 42-1049, chain 1 of 2): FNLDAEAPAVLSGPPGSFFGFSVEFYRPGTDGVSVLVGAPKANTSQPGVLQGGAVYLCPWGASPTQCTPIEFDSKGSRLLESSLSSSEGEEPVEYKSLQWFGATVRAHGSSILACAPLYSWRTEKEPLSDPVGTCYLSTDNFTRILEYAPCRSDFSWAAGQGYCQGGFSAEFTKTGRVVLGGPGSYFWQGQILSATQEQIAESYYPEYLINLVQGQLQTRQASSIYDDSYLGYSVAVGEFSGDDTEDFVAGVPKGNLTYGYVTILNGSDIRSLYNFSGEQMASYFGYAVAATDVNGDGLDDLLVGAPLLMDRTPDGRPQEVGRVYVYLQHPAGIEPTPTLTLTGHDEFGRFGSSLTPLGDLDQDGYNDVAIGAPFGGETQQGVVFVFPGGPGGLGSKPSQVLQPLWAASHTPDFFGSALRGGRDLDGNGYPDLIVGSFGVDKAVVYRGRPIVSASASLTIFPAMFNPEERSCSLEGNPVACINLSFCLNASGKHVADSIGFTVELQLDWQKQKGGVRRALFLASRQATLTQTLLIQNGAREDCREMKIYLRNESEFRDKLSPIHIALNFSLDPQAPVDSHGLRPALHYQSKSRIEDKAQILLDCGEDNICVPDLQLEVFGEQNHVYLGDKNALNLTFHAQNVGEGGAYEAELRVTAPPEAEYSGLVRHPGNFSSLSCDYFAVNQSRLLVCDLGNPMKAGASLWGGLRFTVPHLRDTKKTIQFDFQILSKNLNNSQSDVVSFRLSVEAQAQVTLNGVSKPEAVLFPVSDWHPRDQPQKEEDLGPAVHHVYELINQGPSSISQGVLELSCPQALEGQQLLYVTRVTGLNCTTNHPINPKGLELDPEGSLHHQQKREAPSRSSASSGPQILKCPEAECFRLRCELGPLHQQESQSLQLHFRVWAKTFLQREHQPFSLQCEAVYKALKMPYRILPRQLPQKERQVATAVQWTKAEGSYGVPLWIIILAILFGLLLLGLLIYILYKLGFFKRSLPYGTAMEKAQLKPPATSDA
T5 sequence (P05556 21-798, chain 2 of 2): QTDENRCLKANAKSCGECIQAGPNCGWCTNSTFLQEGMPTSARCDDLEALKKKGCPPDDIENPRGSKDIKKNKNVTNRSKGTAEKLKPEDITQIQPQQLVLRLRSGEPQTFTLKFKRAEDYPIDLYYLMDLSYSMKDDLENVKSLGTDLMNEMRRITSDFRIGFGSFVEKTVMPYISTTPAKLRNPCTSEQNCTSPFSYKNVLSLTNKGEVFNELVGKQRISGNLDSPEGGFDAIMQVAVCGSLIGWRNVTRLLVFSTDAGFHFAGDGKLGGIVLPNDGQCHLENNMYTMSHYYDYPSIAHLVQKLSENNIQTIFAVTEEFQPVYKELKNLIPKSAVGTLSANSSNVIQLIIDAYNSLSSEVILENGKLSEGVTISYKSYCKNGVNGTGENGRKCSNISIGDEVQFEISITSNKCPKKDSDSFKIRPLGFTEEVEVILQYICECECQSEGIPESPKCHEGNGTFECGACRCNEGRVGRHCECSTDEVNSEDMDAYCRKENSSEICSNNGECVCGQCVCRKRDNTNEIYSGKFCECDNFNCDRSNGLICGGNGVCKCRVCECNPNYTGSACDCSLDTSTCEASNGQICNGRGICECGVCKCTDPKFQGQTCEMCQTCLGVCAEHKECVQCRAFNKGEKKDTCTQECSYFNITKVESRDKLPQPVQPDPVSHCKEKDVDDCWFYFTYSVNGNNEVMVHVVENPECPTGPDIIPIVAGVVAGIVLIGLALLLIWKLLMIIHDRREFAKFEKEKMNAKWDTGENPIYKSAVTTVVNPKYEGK
T2 sequence (P06756 31-992, chain 1 of 2): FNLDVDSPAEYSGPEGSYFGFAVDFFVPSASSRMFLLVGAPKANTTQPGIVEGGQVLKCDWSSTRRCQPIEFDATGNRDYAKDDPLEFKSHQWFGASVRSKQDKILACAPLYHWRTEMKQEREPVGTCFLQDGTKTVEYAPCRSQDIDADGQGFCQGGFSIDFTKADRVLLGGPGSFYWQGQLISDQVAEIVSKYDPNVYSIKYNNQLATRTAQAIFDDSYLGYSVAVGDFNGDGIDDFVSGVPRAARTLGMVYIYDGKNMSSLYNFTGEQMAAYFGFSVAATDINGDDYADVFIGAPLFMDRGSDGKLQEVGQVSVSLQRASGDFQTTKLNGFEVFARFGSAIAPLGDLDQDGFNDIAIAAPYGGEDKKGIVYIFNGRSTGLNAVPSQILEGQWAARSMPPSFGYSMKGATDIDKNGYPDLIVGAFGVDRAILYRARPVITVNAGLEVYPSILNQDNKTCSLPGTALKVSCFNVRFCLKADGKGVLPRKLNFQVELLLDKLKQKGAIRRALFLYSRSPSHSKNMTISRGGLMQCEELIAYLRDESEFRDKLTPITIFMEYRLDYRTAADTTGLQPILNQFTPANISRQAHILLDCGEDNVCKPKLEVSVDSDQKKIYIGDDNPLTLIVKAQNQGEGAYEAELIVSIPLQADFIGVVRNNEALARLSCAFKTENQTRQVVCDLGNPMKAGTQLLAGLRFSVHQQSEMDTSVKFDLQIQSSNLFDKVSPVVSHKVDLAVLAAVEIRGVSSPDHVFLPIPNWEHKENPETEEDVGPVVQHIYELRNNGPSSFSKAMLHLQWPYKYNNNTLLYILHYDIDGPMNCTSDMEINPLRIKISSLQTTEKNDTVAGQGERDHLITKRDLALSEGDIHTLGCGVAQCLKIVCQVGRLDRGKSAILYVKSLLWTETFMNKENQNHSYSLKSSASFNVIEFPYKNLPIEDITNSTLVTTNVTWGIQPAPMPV
T2 sequence (P05556 21-728, chain 2 of 2): as the sequence (P05556 21-728, chain 2 of 2) above

B1: xw_a5b1_00179_v4.1 (designed binder)
chain: SELIIHGRGDFPSSELERLRERFERLGIKVRVDHKVLTLIGISEEEAERLARELRKRGIWVEIRK
modifications: also: N-terminal avi-tag/biotin for BLI, His6 tag at N- or C-terminus, tag sequences not given here
notes: a His6 tag stood at the N- or C-terminus
Consider B1, for which the binding result with integrin α8β1, with integrin αvβ1, in the experiment with integrin αvβ3 and in the experiment with integrin αvβ8 was “no binding (tested: 500 nM)” each time. Further, in [1], the “EC50 (read off the curve)” value was around 2 nM. In addition, the results for the Kd with integrin α5β1 [2] and in the experiment with integrin α5β1 [3] were 0.3 nM and 40 nM, respectively.

B2: 8RGD10/GGG mutant of minibinder 00179_v4.1 (designed binder)
chain: Biotin-SELIIHGGGGFPSSELERLRERFERLGIKVRVDHKVLTLIGISEEEAERLARELRKRGIWVEIRK
notes: also called RGD/GGG mutant
Take B2: the binding result with integrin α5β1 [4] is recorded as “no binding (tested: 1000 nM)”.

B3: C6-mb: hexamer formed by mixing 00179_v4.1_N-term-LHD101A (SEQ ID NO:16) and C6-71-9-1_101B (SEQ ID NO:17) at 6:1 ratio (protein)
chain 1: MSGRQEKVLKSIEETVRKMGVTMETHRSGNEVKVVIKGLHIKQQRQLYRDVRETSKKQGVETEIEVEGDTVTIVVREGGSGGSELIIHGRGDFPRSELERLRERFERLGIKVRVDHKVLTLIGISEEEAERLARELRKRGIWVEIRKGSGSHHWGSTHHHHHH
chain 2: MGRQEKVLKSIEETVRKMGVTMETHRSGNEVKVVIKGLHESQQEQLLEDVLRTAEKQGVRVRIRFKGDTVTIVVREGSPEEILERAKESLERAKEAFERGDEEEFRKAAEKALELAKRLVEQAKKEGDPELVFEAARVALWVAWLAAWFGDKEVFKKAAESALEVAKRLVEVAKEEGDPELVLKAAFVALLVAIMAVILGDKEVFKKAAESALEVAKRLVEIAAREGDPELVEEAAKVAELVRELAKLMGDEEVYEKARETAREVRLFLLFVRIWEGGGGSLEHHHHHH
modifications: 6:1 hexameric assembly; VARIANT 1 optionally absent; VARIANT 148..163 optionally absent; VARIANT 282..289 optionally absent
As to B3, the cell migration entry in the experiment with HUVECs is recorded as “even more pronounced inhibition of cell migration”; in the experiment with HUVECs (listed as C6-oligomer) it was “inhibits cell migration”.

B4: xw_a5b1_004584v5.3 (designed binder)
chain: GEVEVHGRGDIPRSSLELFEKVAKELGLKVERNHRTVTVKGVSEEQIRELEEVAKKLGLWVLVRVTE
notes: Tags of the construct as assayed are not specified
Turning to B4, the binding result in experiment [1] is “binds”.
